Results from US8663642B2, “Anti-CD70 antibody-drug conjugates and their use for the treatment and prevention of cancer and immune disorders” (priority 2003, dated 2014).

How the values were obtained:
Type in all cases: cell-based, human
WSU-NHL cells = experiment: 3H-TdR proliferation assay, hematologic lines; conditions: 96 hours, 3H-TdR last 16 hours
Procedure: (§1) FIG. 5: Effects of anti-CD70 ADCs on the proliferation of transformed hematologic cell lines. A subset of the CD70^+ cell lines shown in FIG. 4 and the CD70^− Jurkat cell line were tested for their sensitivity toward 1F6 ADCs. Graded doses of the 1F6-vcMMAE, 1F6-vcAFP, or the corresponding non-binding control IgG (IgG) ADCs were added to cells at the initiation of culture. Cells were exposed to the ADCs continuously for a total of 96 hours. Proliferation was determined by pulsing with ^3H-TdR during the last 16 hours of incubation. The upper panels show the response of the WSU-NHL and Jurkat lines. The lower panel summaries the responses by the tested cell lines to 1F6-vcMMAE and 1F6-vcAFP in form of IC50s.
(§2) A subset of the CD70^+ hematologic lines listed in FIG. 4 was tested for sensitivity to the 1F6 ADCs. These lines were seeded at 5,000 cells per well in 96-well plates in quadruplicates in a total of 200 μl of culture medium containing graded doses of the ADCs as indicated in the FIG. 5 and the accompanying figure legend. Proliferation assays were carried out for 96 hours. Tritiated thymidine (^3H-TdR) incorporation during the last 16 hours of incubation was used to assess DNA synthesis. The responses of a CD70^+ B lymphoma cell line WSU-NHL and the CD70^− Jurkat cells are shown in the upper panels of FIG. 5. […] Proliferation inhibitory effects were apparent when the ADCs were used at concentrations higher than 0.005 μg/ml. […] On the other hand, proliferation of the CD70^− Jurkat acute T leukemia cell line was not affected by either 1F6-vcMMAE or 1F6-vcAFP at concentrations as high as 2 μg/ml. […] The responses of other CD70^+ cell lines tested are summarized in the lower panel of FIG. 5. […] Moreover, EBV-LCLs are phenotypically very similar to activated normal B cells.

CD70^− Jurkat cells = experiment: 3H-TdR proliferation assay, hematologic lines; conditions: at concentrations as high as 2 μg/ml
Procedure: as §1, §2

[1] = system: CD70^+ CD8^+/Vβ17^+ T cells; experiment: In vitro deletion of M1 peptide-specific T cells (flow cytometry, viable counts)
Procedure: PBMCs from a normal HLA-A0201donor were stimulated with the M1 peptide for 5 days. 1F6 ADCs or control non-binding IgG (cIgG) ADCs were added to cells to a final concentration of 1 μg/ml. Total viable cell counts were conducted at 24, 48, and 76 hours post drug addition. Total numbers of CD8^+/Vβ17^+ for each culture condition are calculated (upper panel).
FIG. 19: Dose-response comparison of anti-CD70 ADCs on deletion of antigen-specific CD8^+/Vβ17^+ cells. PBMCs from a normal HLA-A0201donor were stimulated with the M1 peptide for 5 days. 1F6 ADCs or control non-binding IgG (cIgG) ADCs were given to cells to the specified final concentrations. The percentages of CD8^+/Vβ17^+ cells 4 days post ADC addition was determined by flow cytometry as in FIG. 17.
To examine CD70 expression on activated antigen-specific T cells, PBMCs from a normal donor expressing HLA-A0201 were stimulated with the M1 peptide. PBMCs were seeded at 2×10^6 cells/ml with 5 μg/ml of M1 peptide in AIMV medium supplemented with 5% human AB serum. IL-2 (Proleukin, Chiron) and IL-15 (R&D Systems, MN) were added to final concentrations of 20 IU/ml and 5 ng/ml, respectively, once every two days beginning on day 2 after culture initiation. The expansion of CD8^+/Vβ17^+ T cells and induction of CD70 on the CD8^+/Vβ17^+ was followed by three-color flow cytometry. Vβ17^+ T cells were identified by the anti-TCRVβ17 mAb clone E17.5F3 (Beckman Coulter, Miami, Fla.).
PBMCs from a normal donor expressing HLA-A0201 were stimulated with the M1 peptide as described in Example 11. On day 5, cells were harvested, washed, and re-seeded at 0.5-1×10^6 cells/ml (approximately 100,000 of CD8^+/Vβ17^+ T cells) in fresh AIMV medium supplemented with 5% human AB, 20 IU/ml of IL-2, and 5 ng/ml of IL-15. 1F6 or control non-binding IgG (cIgG) ADCs were added to some cultures to a final concentration of 1 μg/ml. Total viable cell counts were conducted 24, 48, and 76 hours after ADC addition. Two-color flow cytometry was conducted to determine the percentages of CD8^+/Vβ17^+ cells among the viable cells. The absolute number of CD8^+/Vβ17^+ T cells in each culture was then calculated. […] The effects of 1F6 ADCs on the CD8^+/Vβ17^− cells were also evaluated.
The potency of three 1F6 ADCs was then compared. HLA-A0201 PBMCs were stimulated with the M1 peptide and re-seeded as described for FIG. 18 with the various ADCs at the indicated concentrations (FIG. 19). The percent of CD8^+/Vβ17^+ T cells after a 96-hour incubation was determined.

CD70^− Hs 835.T cells = experiment: 3H-TdR proliferation assay, CD70-negative RCC line; conditions: CD70^− Hs 835.T, compared with CD70^+ RCC lines

B1: 1F6-vcAFP: anti-CD70 mAb 1F6 linked to auristatin phenylalanine phenylenediamine by the valine-citrulline (vc) dipeptide linker (conjugate)
VH: QIQLVQSGPEVKKPGETVKISCKASGYTFTNYGMNWVKQAPGKGLKWMGWINTYTGEPTYADAFKGRFAFSLETSASTAYLQINNLKNEDTATYFCARDYGDYGMDYWGQGTSVTVSS
VL: DIVLTQSPASLAVSLGQRATISCRASKSVSTSGYSFMHWYQQKPGQPPKLLIYLASNLESGVPARFSGSGSGTDFTLNIHPVEEEDAATYYCQHSREVPWTFGGGTKLEIKR
modifications: non-natural residues
notes: anti-CD70 mAb 1F6 linked to auristatin phenylalanine phenylenediamine by the valine-citrulline (vc) dipeptide linker
effect on the proliferation of WSU-NHL cells (WSU-NHL cells): dose-dependent inhibitory effects | effect on proliferation of Jurkat cells (CD70^− Jurkat cells): not affected | number of CD8^+/Vβ17^+ T cells ([1]; 1 μg/ml, 76 hours after ADC addition): Virtually no expansion | CD8^+/Vβ17^+ cells, of the control untreated culture ([1]; 1 μg/ml, end of the experiment): < 40% | inhibition of CD8^+/Vβ17^+ T cell expansion ([1]; 96-hour incubation): dose-dependent inhibition | IC50 values for proliferation inhibition (CD70^− Hs 835.T cells): Substantially higher IC50 values
